The Human Domainome abundance scans (Beltran et al. 2025)
± gives the uncertainty stated by the source.

B1: Steroid hormone receptor ERR2, residues 100 to 176; numbered along this chain, O95718 (parent)
chain: KRLCLVCGDIASGYHYGVASCEACKAFFKRTIQGNIEYSCPATNECEITKRRRKSCQACRFMKCLKVGMLKEGVRLD

Variants of: B1
Test: abundance fitness (aPCA) (normalised: wild type 0, dead -1); higher = more abundant; growth selection in yeast, the domain comes from the species named
Settings: Homo sapiens

| Variant | abundance fitness |
| --- | --- |
| KRLCLVCGDIASGYHYGVASCEACKAFFKRTIQGNIEYSCPATNECEITKRRRKSCQACRFMKCLKVGMLIEGVRLD [K71I] | -0.047 ± 0.09 |
| KRLCLVCGDIASGYHYGVASCEACKAFFKRTIQGNIEYSCPATNECEITKRRRKSCQACRFMKCLKVGMLDEGVRLD [K71D] | -0.102 ± 0.08 |
| KRLCLVCGDIASGYHYGVASCEACKAFFKRTIQGNIEYSCPATNECEITKRRRKSCQACRFMKCLKVGMLEEGVRLD [K71E] | -0.07 ± 0.054 |
| KRLCLVCGDIASGYHYGVASCEACKAFFKRTIQGNIEYSCPATNECEITKRRRKSCQACRFMKCLKVGMLFEGVRLD [K71F] | -0.305 ± 0.11 |
| KRLCLVCGDIASGYHYGVASCEACKAFFKRTIQGNIEYSCPATNECEITKRRRKSCQACRFMKCLKVGMLAEGVRLD [K71A] | -0.109 ± 0.054 |
| KRLCLVCGDIASGYHYGVASCEACKAFFKRTIQGNIEYSCPATNECEITKRRRKSCQACRFMKCLKVGMLMEGVRLD [K71M] | -0.063 ± 0.061 |
| KRLCLVCGDIASGYHYGVASCEACKAFFKRTIQGNIEYSCPATNECEITKRRRKSCQACRFMKCLKVGMLGEGVRLD [K71G] | -0.166 ± 0.044 |
| KRLCLVCGDIASGYHYGVASCEACKAFFKRTIQGNIEYSCPATNECEITKRRRKSCQACRFMKCLKVGMLCEGVRLD [K71C] | -0.006 ± 0.069 |
| KRLCLVCGDIASGYHYGVASCEACKAFFKRTIQGNIEYSCPATNECEITKRRRKSCQACRFMKCLKVGMLLEGVRLD [K71L] | -0.148 ± 0.047 |
| KRLCLVCGDIASGYHYGVASCEACKAFFKRTIQGNIEYSCPATNECEITKRRRKSCQACRFMKCLKVGMPKEGVRLD [L70P] | -0.044 ± 0.091 |
| KRLCLVCGDIASGYHYGVASCEACKAFFKRTIQGNIEYSCPATNECEITKRRRKSCQACRFMKCLKVGMKKEGVRLD [L70K] | 0.13 ± 0.066 |
| KRLCLVCGDIASGYHYGVASCEACKAFFKRTIQGNIEYSCPATNECEITKRRRKSCQACRFMKCLKVGMDKEGVRLD [L70D] | 0.069 ± 0.087 |
| KRLCLVCGDIASGYHYGVASCEACKAFFKRTIQGNIEYSCPATNECEITKRRRKSCQACRFMKCLKVGMIKEGVRLD [L70I] | 0.034 ± 0.095 |
| KRLCLVCGDIASGYHYGVASCEACKAFFKRTIQGNIEYSCPATNECEITKRRRKSCQACRFMKCLKVGMNKEGVRLD [L70N] | 0.032 ± 0.085 |
| KRLCLVCGDIASGYHYGVASCEACKAFFKRTIQGNIEYSCPATNECEITKRRRKSCQACRFMKCLKVGMWKEGVRLD [L70W] | -0.032 ± 0.053 |
| KRLCLVCGDIASGYHYGVASCEACKAFFKRTIQGNIEYSCPATNECEITKRRRKSCQACRFMKCLKVGMMKEGVRLD [L70M] | -0.03 ± 0.08 |
| KRLCLVCGDIASGYHYGVASCEACKAFFKRTIQGNIEYSCPATNECEITKRRRKSCQACRFMKCLKVGMFKEGVRLD [L70F] | -0.066 ± 0.073 |
| KRLCLVCGDIASGYHYGVASCEACKAFFKRTIQGNIEYSCPATNECEITKRRRKSCQACRFMKCLKVGMQKEGVRLD [L70Q] | -0.035 ± 0.085 |

| Variant | abundance fitness |
| --- | --- |
| KRLCLVCGDIASGYHYGVASCEACKAFFKRTIQGNIEYSCPATNECEITKRRRKSCQACRFMKCLKVGMAKEGVRLD [L70A] | -0.004 ± 0.056 |
| KRLCLVCGDIASGYHYGVASCEACKAFFKRTIQGNIEYSCPATNECEITKRRRKSCQACRFMKCLKVGMRKEGVRLD [L70R] | 0.014 ± 0.043 |
| KRLCLVCGDIASGYHYGVASCEACKAFFKRTIQGNIEYSCPATNECEITKRRRKSCQACRFMKCLKVGMSKEGVRLD [L70S] | 0.083 ± 0.052 |
| KRLCLVCGDIASGYHYGVASCEACKAFFKRTIQGNIEYSCPATNECEITKRRRKSCQACRFMKCLKVGMYKEGVRLD [L70Y] | -0.646 ± 0.17 |
| KRLCLVCGDIASGYHYGVASCEACKAFFKRTIQGNIEYSCPATNECEITKRRRKSCQACRFMKCLKVGMGKEGVRLD [L70G] | -0.084 ± 0.042 |
| KRLCLVCGDIASGYHYGVASCEACKAFFKRTIQGNIEYSCPATNECEITKRRRKSCQACRFMKCLKVGMHKEGVRLD [L70H] | -0.158 ± 0.15 |
| KRLCLVCGDIASGYHYGVASCEACKAFFKRTIQGNIEYSCPATNECEITKRRRKSCQACRFMKCLKVGMEKEGVRLD [L70E] | 0.101 ± 0.051 |
| KRLCLVCGDIASGYHYGVASCEACKAFFKRTIQGNIEYSCPATNECEITKRRRKSCQACRFMKCLKVGMVKEGVRLD [L70V] | 0.107 ± 0.046 |
| KRLCLVCGDIASGYHYGVASCEACKAFFKRTIQGNIEYSCPATNECEITKRRRKSCQACRFMKCLKVGMCKEGVRLD [L70C] | -0.098 ± 0.073 |
| KRLCLVCGDIASGYHYGVASCEACKAFFKRTIQGNIEYSCPATNECEITKRRRKSCQACRFMKCLKVGMTKEGVRLD [L70T] | 0.011 ± 0.062 |
| KRLCLVCGDIASGYHYGVASCEACKAFFKRTIQGNIEYSCPATNECEITKRRRKSCQACRFMKCLKVHMLKEGVRLD [G68H] | -0.657 ± 0.17 |
| KRLCLVCGDIASGYHYGVASCEACKAFFKRTIQGNIEYSCPATNECEITKRRRKSCQACRFMKCLKVMMLKEGVRLD [G68M] | -0.851 ± 0.19 |
| KRLCLVCGDIASGYHYGVASCEACKAFFKRTIQGNIEYSCPATNECEITKRRRKSCQACRFMKCLKVSMLKEGVRLD [G68S] | -0.954 ± 0.14 |
| KRLCLVCGDIASGYHYGVASCEACKAFFKRTIQGNIEYSCPATNECEITKRRRKSCQACRFMKCLKVCMLKEGVRLD [G68C] | -0.808 ± 0.18 |
| KRLCLVCGDIASGYHYGVASCEACKAFFKRTIQGNIEYSCPATNECEITKRRRKSCQACRFMKCLKVQMLKEGVRLD [G68Q] | -0.944 ± 0.2 |
| KRLCLVCGDIASGYHYGVASCEACKAFFKRTIQGNIEYSCPATNECEITKRRRKSCQACRFMKCLKVRMLKEGVRLD [G68R] | -0.903 ± 0.098 |
| KRLCLVCGDIASGYHYGVASCEACKAFFKRTIQGNIEYSCPATNECEITKRRRKSCQACRFMKCLKVTMLKEGVRLD [G68T] | -0.849 ± 0.2 |
